Laboratory results published in patent publication US20090028881A1 (ROCHE PALO ALTO, published 2009).

Target: T1, human CCR5 (wild-type) (human, UniProt P51681 1-352)
T1 construct: also called wild-type CCR5
Experiment: alanine scanning epitope mapping
From the text: Epitope binding is investigated by using alanine scanning according to the method described by W. C. Olson et al. (J. Virol. (1999) 73:4145-55) for epitope mapping. […] 100% epitope binding is defined for wild-type CCR5. A further preferred anti-CCR5 antibody binds to the same epitope as antibody C binds.

T1 sequence (P51681 whole entry): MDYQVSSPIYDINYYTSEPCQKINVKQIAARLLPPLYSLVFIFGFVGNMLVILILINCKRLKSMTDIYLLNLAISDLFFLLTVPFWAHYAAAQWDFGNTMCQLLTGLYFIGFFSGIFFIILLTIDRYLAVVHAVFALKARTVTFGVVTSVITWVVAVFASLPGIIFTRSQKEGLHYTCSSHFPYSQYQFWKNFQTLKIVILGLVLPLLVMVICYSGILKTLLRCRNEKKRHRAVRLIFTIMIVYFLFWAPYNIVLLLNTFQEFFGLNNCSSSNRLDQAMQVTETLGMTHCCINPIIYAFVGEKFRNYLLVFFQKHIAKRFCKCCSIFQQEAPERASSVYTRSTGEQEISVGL

B1: <CCR5>Pz03.1C5 (antibody, V domains shown)
VH: QVQLKQSGPGLVRPSQSLSITCTVSGFPLGIFGVHWVRQSPGKGLEWLGVIWKGGNTDYNAAFMSRLRITKDNSKSQVFFRMNSLQTDDTAIYYCAKVNLADAMDYWGQGTSVIVSS
VL: DIQMTQSPASLSASVGETVTITCRASGNIHGYLAWFQQKQGKSPQLLVYNTKTLAEGVPSRFSGSGSGTQFSLKINSLQPEDFGNYYCQHHYDLPRTFGGGTKLEIKR
notes: also called Antibody C; m<CCR5>Pz03.1C5
binding result: binds
